# What was measured:
# Assay in all cases: cell-based or functional assay
# mouse GLP1R (mouse) = mouse GLP1R (mouse) (UniProt O35659)
# human GIPR (human) = molecular target: T1, human GIPR (human) (UniProt P48546)
# T1 sequence (looked up): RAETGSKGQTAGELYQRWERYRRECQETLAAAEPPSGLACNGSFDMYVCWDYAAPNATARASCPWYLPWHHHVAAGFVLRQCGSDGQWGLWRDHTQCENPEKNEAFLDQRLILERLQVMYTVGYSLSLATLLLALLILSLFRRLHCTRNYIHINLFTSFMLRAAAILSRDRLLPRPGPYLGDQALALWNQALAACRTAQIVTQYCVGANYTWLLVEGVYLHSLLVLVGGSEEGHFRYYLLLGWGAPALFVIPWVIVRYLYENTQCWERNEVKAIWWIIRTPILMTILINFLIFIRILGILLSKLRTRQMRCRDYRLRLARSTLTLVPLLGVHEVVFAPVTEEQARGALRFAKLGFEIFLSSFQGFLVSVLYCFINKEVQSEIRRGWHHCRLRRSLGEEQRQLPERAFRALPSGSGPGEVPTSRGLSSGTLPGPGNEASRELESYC
# dog GIPR (dog) = molecular target: dog GIPR (dog)
# [1] = molecular target: cynomolgous monkey GIPR (cynomolgous monkey)
# [2] = molecular target: cynomolgous monkey GLP1R (cynomolgous monkey)
# dog GLP1R (dog) = molecular target: dog GLP1R (dog)
# Sequence of dog GLP1R (dog) (chain, as listed by the source): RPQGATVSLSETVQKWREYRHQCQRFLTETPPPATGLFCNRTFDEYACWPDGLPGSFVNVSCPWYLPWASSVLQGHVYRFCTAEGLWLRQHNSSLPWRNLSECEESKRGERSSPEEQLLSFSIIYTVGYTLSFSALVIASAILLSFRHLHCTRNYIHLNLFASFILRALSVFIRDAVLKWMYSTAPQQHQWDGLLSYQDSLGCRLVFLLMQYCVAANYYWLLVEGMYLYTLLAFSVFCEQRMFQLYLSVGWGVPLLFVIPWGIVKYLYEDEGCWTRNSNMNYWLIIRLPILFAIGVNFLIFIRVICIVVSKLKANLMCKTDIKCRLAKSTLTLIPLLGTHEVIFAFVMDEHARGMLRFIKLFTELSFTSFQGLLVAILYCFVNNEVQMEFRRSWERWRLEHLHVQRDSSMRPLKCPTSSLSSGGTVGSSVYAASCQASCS
# mouse GIPR (mouse) = molecular target: T2, mouse GIPR (mouse) (UniProt Q0P543)
# T2 sequence (looked up): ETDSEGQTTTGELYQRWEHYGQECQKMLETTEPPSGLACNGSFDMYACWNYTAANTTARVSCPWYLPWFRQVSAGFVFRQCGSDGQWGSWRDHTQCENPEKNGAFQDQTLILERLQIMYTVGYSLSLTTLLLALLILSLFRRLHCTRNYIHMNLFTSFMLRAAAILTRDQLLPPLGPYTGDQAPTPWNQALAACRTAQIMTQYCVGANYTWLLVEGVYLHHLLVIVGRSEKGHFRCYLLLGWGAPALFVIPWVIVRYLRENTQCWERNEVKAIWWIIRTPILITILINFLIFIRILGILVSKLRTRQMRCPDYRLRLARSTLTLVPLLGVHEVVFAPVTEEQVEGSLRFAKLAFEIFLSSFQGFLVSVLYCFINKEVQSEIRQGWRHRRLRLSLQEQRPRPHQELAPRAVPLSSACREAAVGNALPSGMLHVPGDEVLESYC
# Sequence of mouse GLP1R (mouse) (O35659 22-463 limits assumed): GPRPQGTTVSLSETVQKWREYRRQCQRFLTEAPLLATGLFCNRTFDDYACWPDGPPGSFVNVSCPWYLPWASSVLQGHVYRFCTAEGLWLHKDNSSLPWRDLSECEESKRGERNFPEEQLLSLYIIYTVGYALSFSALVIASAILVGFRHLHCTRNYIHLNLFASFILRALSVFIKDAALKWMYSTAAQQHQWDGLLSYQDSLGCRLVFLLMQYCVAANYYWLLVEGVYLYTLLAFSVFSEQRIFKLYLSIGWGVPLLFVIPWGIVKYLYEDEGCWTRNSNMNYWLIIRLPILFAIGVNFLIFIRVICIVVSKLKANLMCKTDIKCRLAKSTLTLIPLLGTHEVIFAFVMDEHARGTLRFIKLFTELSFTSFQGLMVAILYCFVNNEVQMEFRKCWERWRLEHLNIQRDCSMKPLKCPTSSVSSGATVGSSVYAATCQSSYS
Substance,"In Vitro Potency GLP1R EC50 [nM], Mouse (mouse GLP1R (mouse)) [nM]","In Vitro Potency GIPR EC50 [nM], No Serum (human GIPR (human)) [nM]","In Vitro Potency GIPR EC50 [nM], Dog (dog GIPR (dog)) [nM]","In Vitro Potency GIPR EC50 [nM], Cyno [1] [nM]","In Vitro Potency GLP1R EC50 [nM], Cyno [2] [nM]","In Vitro Potency GLP1R EC50 [nM], Dog (dog GLP1R (dog)) [nM]","In Vitro Potency GIPR EC50 [nM], 10% FBS (human GIPR (human)) [nM]","In Vitro Potency GIPR EC50 [nM], Mouse (mouse GIPR (mouse)) [nM]"
Tirzepatide (peptide),0.16,0.006,0.1,0.08,,,,
Semaglutide (peptide),0.1,,,,0.13,0.67,,
wild-type human GIP (hGIP) (from UniProt P09681 52-93) (ligand),,0.05,0.7,0.69,,,0.01,0.34
